Results taken from the supplement of paper PMC10567573.
± gives the standard deviation.

Assay: protein stability index of a GFP-peptide fusion (GPS, HEK-293T) (PSI 1-6); higher = more stable
Conditions: c terminus: a fixed tail appended
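Note: 24-mer peptide tiles fused after GFP, lentivirally expressed, FACS-sorted into six equal bins by GFP/DsRed ratio, decoded by Illumina sequencing, PSI is the read-weighted mean bin number.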

| Sequence | protein stability index (treatment: DMSO) | protein stability index (treatment: MLN4924 1 uM, 8 h) |
| --- | --- | --- |
| SSSSSASSSASSSFSEEGAVGYSS [NFE2L1] | 5.25 ± 0.16 | 5.32 ± 0.13 |
| PLAVEEDASSSTSTSSSFPSSFPS [MAGEA10] | 5.31 ± 0.23 | 5.41 ± 0.12 |
| DCSDILRLIKELAKYEYMEEQVIL [SAT1] | 1.95 ± 0.51 | 2.23 ± 0.1 |
| HFWQLFNALTLFNLAQDPQCKEWQ [TMEM120A] | 3.17 ± 0.61 | 3.72 ± 0.76 |
| QVPSGEDQTALSLEECLRLLEATC [NFE2L1] | 4.02 ± 0.98 | 3.96 ± 0.31 |
| GDLFNGRYHVIRKLGWGHFSTVWL [SRPK2] | 2.19 ± 0.07 | 2.17 ± 0.81 |
| KRCIVILREIPETTPIEEVKGLFK [LARP4] | 2.23 ± 0.46 | 1.93 ± 0.47 |
| GDAFGSSASEPQPASQAASSSSAS [SNAP91] | 5.48 ± 0.16 | 5.32 ± 0.31 |
| TIVSCTPVHLVDKLPLPSTLRSHL [RAB40A] | 2.32 ± 0.091 | 2.28 ± 0.15 |
| NIPGNSTLITAVELERFVNLHSLA [FBXO33] | 2.27 ± 0.24 | 2.23 ± 0.37 |
| FNYRYFEVEEADGNKQWWFGGGCD [CPOX] | 2.48 ± 0.23 | 2.58 ± 0.28 |
| SNDFKSVLEVRTENLKQQRSRREQ [STX5] | 4.9 ± 0.21 | 4.92 ± 0.31 |
| LSLPARNQAGYFMLPTVITDIKDE [ALDH8A1] | 3.81 ± 0.39 | 3.88 ± 0.27 |
| DTNLGRLEDGQTPLHLSALRDDVL [ASB7] | 4.59 ± 0.1 | 4.56 ± 0.21 |
| YHSPELTTPPGHGTLDNSKSMKPY [NEUROD6] | 2.87 ± 0.65 | 3.7 ± 0.67 |
| ELQLEAANETYENNFDNLDFDLDL [ATF6] | 4.76 ± 0.26 | 5.08 ± 0.11 |
| ACGGGHLLPYFYIIYMAILLTHRC [DHCR7] | 2.8 ± 0.18 | 3.07 ± 0.19 |

| Sequence | protein stability index (treatment: DMSO) | protein stability index (treatment: MLN4924 1 uM, 8 h) |
| --- | --- | --- |
| HGWLRPEMRTKEQILELLVLEQFL [ZNF263] | 2.46 ± 0.47 | 2.61 ± 0.43 |
| LLNQQSLKRSANQMGVSAKRRPKA [MED27] | 3.47 ± 0.3 | 3.82 ± 0.24 |
| MAGGPPNTKAEMEMSLAEELNHGR [FATE1] | 5.17 ± 0.14 | 5.22 ± 0.27 |
| EALLKLLAGLTRPDVRPPLGRGLV [SEPHS2] | 2.22 ± 0.45 | 2.32 ± 0.24 |
| AACLLQLDGLIQQCGETMKETVNV [GMCL1] | 3.14 ± 0.24 | 3.07 ± 0.25 |
| VILLPYVSKVTGWCRDRLLGHREP [TMEM175] | 2.28 ± 0.3 | 2.04 ± 0.36 |
| KKVSEGPPLRLWRSVIEVPAVPEE [DLC1] | 3.37 ± 0.42 | 3.91 ± 0.46 |
| TVDGLHFNSTYNARVKAFNKTGVS [TRIM9] | 3.17 ± 0.19 | 3.46 ± 0.086 |
| SKNGNGLKNTPRFKRRRVRRRRME [PCMTD2] | 4.6 ± 0.2 | 4.58 ± 0.32 |
| GVSKVGLRKIIDFIYTAKLSLNMD [KLHL13] | 2.81 ± 0.75 | 2.83 ± 0.63 |
| RDWWNSTSFSNYYRTWNVVVHDWL [SOAT2] | 2.35 ± 0.34 | 2.26 ± 0.21 |
| NSTSVKKKSSRNIFSIVFVFFVCF [P2RY14] | 2 ± 0.64 | – |
| CSSKRSSYPVMGFEFQVRVCDSCY [WDFY1] | 2.66 ± 0.9 | 2.32 ± 0.23 |
| VGDLMSPFDQSGLGAEESLGLLDD [ATF4] | 5.17 ± 0.27 | 4.89 ± 0.28 |
| AAFPNLANLSRTQLLHLGLTQGLI [KLHDC10] | 2.58 ± 0.3 | 2.27 ± 0.2 |
| RMGATMAAINSIYSNTDANILFYV [GLT8D2] | 2.63 ± 0.59 | 3.14 ± 1.5 |
